Reference: publication PMC6876990 (2019)

Target: T1, Smac peptide AVPIAQKSEKY (Homo sapiens)
T1 chain: AVPIAQKSEKY
Experiment: ITC

B1: WT-XIAP BIR3 241-356 (protein)
chain: SDAVSSDRNFPNSTNLPRNPSMADYEARIFTFGTWIYSVNKEQLARAGFYALGEGDKVKCFHCGGGLTDWKPSEDPWEQHAKWYPGCKYLLEQKGQEYINNIHLTHSLEECLVRTT
  Kd: 428 nM
